Bridge positions count the residues as written; N and C are the ends. Square brackets hold non-standard residues; d marks the D form. R8 = C=CCCCCCC[C@@](C)(N)C(=O)O; Cba = N[C@@H](CC1CCC1)C(=O)O; S5 = C=CCCC[C@](C)(N)C(=O)O
Experiments:
[1] = test system: MV4-11; experiment: WST-1 / MTT cell viability, MV4-11; conditions: MV4-11, sequential treatment, 72 hrs
Experimental: Initially, various MV4-11 cell numbers were plated and evaluated 3-7 days later to determine the optimal number of cells to be plated and treatment duration.
Cells were evaluated for viability by WST-1 assay or MTT assay 3-7 days after beginning treatment.
A drug combination index plot was used to assess the synergistic, additive, or antagonistic properties of each combination treatment. […] Combination index (CI) values were calculated using the CompuSyn software. The data were expressed as log(CI).

[2] = test system: AML cell lines; experiment: Cellular proliferation in AML cells treated with Ara-C; type: cell-based; conditions: Ara-C alone
[3] = molecular target: T1, MDMX (In-house, 40 kD) (UniProt O15151 1-120, limits assumed); experiment: competitive fluorescence polarization vs FAM-labeled linear peptide; column Ki (MDMX); grade means >1000 nM
T1 construct: also called MDM4
T1 sequence (looked up): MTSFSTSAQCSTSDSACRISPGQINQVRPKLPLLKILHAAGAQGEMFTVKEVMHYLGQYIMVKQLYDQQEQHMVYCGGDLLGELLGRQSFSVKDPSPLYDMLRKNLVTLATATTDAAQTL

[4] = molecular target: T1, MDMX (In-house, 40 kD); experiment: competitive fluorescence polarization vs FAM-labeled linear peptide; column IC50 (MDMX); grade means >1000 nM
[5] = molecular target: T2, MDM2 (In-house, 41 kD) (UniProt Q00987 1-125, limits assumed); experiment: competitive fluorescence polarization, displacement of FAM-labeled linear peptide from MDM2; grade decoded by the scale of Table 4
T2 construct: Construct limits and any tag are unknown; also called HDM2
T2 sequence (Q00987 1-125 limits assumed): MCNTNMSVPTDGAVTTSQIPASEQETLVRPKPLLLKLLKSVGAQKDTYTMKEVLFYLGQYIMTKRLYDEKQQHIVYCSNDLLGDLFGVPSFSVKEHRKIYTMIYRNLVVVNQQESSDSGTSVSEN

[6] = molecular target: T3, MDMX (In-house, 40 kD) (UniProt O15151 1-120, limits assumed); experiment: competitive fluorescence polarization, displacement of FAM-labeled linear peptide from MDMX; grade decoded by the scale of Table 4
T3 construct: Construct limits and any tag are unknown; also called MDM4
T3 sequence (looked up): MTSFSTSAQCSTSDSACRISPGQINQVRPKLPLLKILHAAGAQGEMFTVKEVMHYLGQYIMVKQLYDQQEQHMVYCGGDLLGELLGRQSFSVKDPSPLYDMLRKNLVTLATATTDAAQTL

## Nc1ccn([C@@H]2O[C@H](CO)[C@@H](O)[C@@H]2O)c(=O)n1 [Ara-C, cytarabine, reference compound]
[1]
  order of addition: effect on cell growth, AP1 and Ara-C: suppressed MV4-11 cell growth with or without AP1
[2]
  proliferation of AML cell lines: inhibits proliferation of AML cell lines

B1: SP252 (peptide)
peptide: LTAAEYWAQAASAA
modifications: not fully specified; N-terminal acetyl (Ac); $r8 = alpha-Me R8-octenyl-alanine and $ = alpha-Me S5-pentenyl-alanine joined by an all-carbon crosslinker; Cba = cyclobutyl alanine; C-terminal amide (NH2)
notes: also called Ac-LTA$r8EYWAQCba$SAA-NH2
[3]
  Ki: > 1000 nM
[4]
  IC50: > 1000 nM

B2: SP716, Ac-LTF$r8EYWAQCba$AAA-NH2 (iso2) (peptide)
peptide: Ac-LTF[R8]EYWAQ[Cba][S5]AAA-NH2
modifications: staple 4-11; also: single isomer iso2
notes: stapled peptidomimetic macrocycle, isomer iso2
[5]
  Ki: ≤ 10 nM
[6]
  Ki: ≤ 10 nM

B3: SP250 (peptide)
peptide: ETFAEYWAQAASAA
modifications: not fully specified; N-terminal Pam cap (abbreviation not explained in the filing); $r8 = alpha-Me R8-octenyl-alanine and $ = alpha-Me S5-pentenyl-alanine joined by an all-carbon crosslinker; Cba = cyclobutyl alanine; C-terminal amide (NH2)
notes: also called Pam-ETF$r8EYWAQCba$SAA-NH2
[3]
  Ki: > 1000 nM
[4]
  IC50: > 1000 nM

B4: SP712, Ac-LTF$r8HYWAQCba$SAA-NH2 (iso2) (peptide)
peptide: LTFAHYWAQAASAA
modifications: not fully specified; N-terminal acetyl; $r8 at 4 crosslinked by all-carbon olefin staple to $ at 11; Cba (cyclobutyl alanine) at 10; C-terminal amide; single isomer iso2
notes: as for B2
[5]
  Ki: ≤ 10 nM
[6]
  Ki: ≤ 10 nM

B5: SP713, Ac-LTF$r8SYWAQCba$SAA-NH2 (iso2) (peptide)
peptide: LTFASYWAQAASAA
modifications: not fully specified; N-terminal acetyl; $r8 at 4 crosslinked by all-carbon olefin staple to $ at 11; Cba (cyclobutyl alanine) at 10; C-terminal amide; single isomer iso2
notes: as for B2
[5]
  Ki: ≤ 10 nM
[6]
  Ki: ≤ 10 nM
